Assay results taken from doi:10.1101/133777 (bioRxiv, 2017).

Molecular target: 3HA-3FLAG-SPAK (mouse, UniProt Q9Z1W9 1-556)
Experiment: pull-down

- binding result: binds
B1: BioEase-FBXL5 (natural protein)
chain: MAPFPEEVDVFTAPHWRMKQLVGLYCDKLSKTNFSNNNDFRALLQSLYATFKEFKMHEQIENEYIIGLLQQRSQTIYNVHSDNKLSEMLSLFEKGLKNVKNEYEQLNYAKQLKERLEAFTRDFLPHMKEEEEVFQPMLMEYFTYEELKDIKKKVIAQHCSQKDTAELLRGLSLWNHAEERQKFFKYSVDEKSDKEAEVSEHSTGITHLPPEVMLSIFSYLNPQELCRCSQVSMKWSQLTKTGSLWKHLYPVHWARGDWYSGPATELDTEPDDEWVKNRKDESRAFHEWDEDADIDESEESAEESIAISIAQMEKRLLHGLIHNVLPYVGTSVKTLVLAYSSAVSSKMVRQILELCPNLEHLDLTQTDISDSAFDSWSWLGCCQSLRHLDLSGCEKITDVALEKISRALGILTSHQSGFLKTSTSKITSTAWKNKDITMQSTKQYACLHDLTNKGIGEEIDNEHPWTKPVSSENFTSPYVWMLDAEDLADIEDTVEWRHRNVESLCVMETASNFSCSTSGCFSKDIVGLRTSVCWQQHCASPAFAYCGHSFCCTGTALRTMSSLPESSAMCRKAARTRLPRGKDLIYFGSEKSDQETGRVLLFLSLSGCYQITDHGLRVLTLGGGLPYLEHLNLSGCLTITGAGLQDLVSACPSLNDEYFYYCDNINGPHADTASGCQNLQCGFRACCRSGE
modifications: biotin (biotinylated FBXL5, BioEase tag)
